Reference: US20070071773

Legend:
[1] = target: recombinant human IL-8/CXCL8 (UniProt P10145)
[2] = target: T1, recombinant murine MIP-2 (UniProt P10889)
T1 sequence: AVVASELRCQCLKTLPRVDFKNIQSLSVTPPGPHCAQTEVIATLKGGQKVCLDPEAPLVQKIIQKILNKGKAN

Chain of recombinant human IL-8/CXCL8 (P10145 28-99): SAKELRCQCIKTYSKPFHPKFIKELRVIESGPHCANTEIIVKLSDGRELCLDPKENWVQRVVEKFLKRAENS

## trypsin-like GAS protease (chemokine protease released into the culture supernatant of GAS strain JS95)
[1]
  IL-8 degradation (Western blot): JS95 supernatant effectively degraded IL-8
[2]
  MIP-2 degradation (dot blot): The supernatant of JS95 degraded more than 80% of the recombinant MIP-2 protein
